We go through two substances from patent publication US20240175038.

The target in the series is T1, IntC3 (mutant phage lambda integrase) (Enterobacteria phage lambda) (UniProt P03700).
T1 sequence: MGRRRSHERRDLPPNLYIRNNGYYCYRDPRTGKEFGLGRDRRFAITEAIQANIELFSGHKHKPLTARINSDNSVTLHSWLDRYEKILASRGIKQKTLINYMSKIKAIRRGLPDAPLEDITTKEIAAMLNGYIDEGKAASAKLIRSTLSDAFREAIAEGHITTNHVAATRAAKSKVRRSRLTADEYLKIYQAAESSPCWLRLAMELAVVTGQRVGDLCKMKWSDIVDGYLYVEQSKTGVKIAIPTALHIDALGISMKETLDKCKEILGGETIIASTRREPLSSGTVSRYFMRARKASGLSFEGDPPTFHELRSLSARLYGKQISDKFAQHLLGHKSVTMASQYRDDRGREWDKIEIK
The experiment in a line: cell_activity. The settings on record: E. coli MG1655-ISC, scIHF2 co-expressed, arabinose 70 min.

Some results are limits rather than exact numbers.

“121 bp attL homologue in pattPhae2(attL)”: the activity (% recombination) (recombination with attB homologue) is over 90.

21 bp attB homologue in pattPhae2(attL): under “recombination with attL homologue”, the activity (% recombination) was over 90.
